Patent US20140087995A1 (published 2014)
Numbered stars: 1 amine (or outer) side, 2 acyl side, 3 side chain; on linkers, the order of the positions; unused ones are H or OH. Bridge positions count the residues as written; N and C are the ends. Side chains are listed from the residue outwards. Ends that are not written are not given here. * marks the point of attachment. C20 diacid = O=C(O)CCCCCCCCCCCCCCCCCCC(=O)*; γGlu = O=C(O)[C@H](CCC(=O)[*:2])N[*:1]

T1: rat calcitonin receptor (rat, UniProt P32214 25-516)
T1 construct: whole, on cells; In cell membranes prepared from transiently transfected BHK tk'ts 13 cells (Assay VIII); also called rCTR; rat calcitonin (a) receptor
T1 sequence (looked up): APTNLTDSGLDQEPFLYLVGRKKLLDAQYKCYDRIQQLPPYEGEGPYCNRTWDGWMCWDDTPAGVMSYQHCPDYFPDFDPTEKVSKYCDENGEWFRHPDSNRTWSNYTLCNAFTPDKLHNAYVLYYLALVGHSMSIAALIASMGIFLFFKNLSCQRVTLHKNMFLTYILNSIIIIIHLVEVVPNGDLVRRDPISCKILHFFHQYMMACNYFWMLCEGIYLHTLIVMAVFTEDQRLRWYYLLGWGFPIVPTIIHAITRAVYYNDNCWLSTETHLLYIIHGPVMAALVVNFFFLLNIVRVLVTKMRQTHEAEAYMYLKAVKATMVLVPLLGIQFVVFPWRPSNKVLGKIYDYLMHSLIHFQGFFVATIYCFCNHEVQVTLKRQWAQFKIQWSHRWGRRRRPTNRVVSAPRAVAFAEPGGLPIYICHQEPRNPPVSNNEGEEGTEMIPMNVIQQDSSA

T2: rat amylin receptor (rat calcitonin receptor + rat RAMP 3) (rat, UniProt P32214 25-516; Q9JJ73 23-147)
T2 construct: whole, on cells; Receptor complex in cell membranes prepared from transiently transfected BHK tk'ts 13 cells (Assay VI); also called rAmylin-R; rat amylin 3(a) receptor
T2 sequence (looked up) 1: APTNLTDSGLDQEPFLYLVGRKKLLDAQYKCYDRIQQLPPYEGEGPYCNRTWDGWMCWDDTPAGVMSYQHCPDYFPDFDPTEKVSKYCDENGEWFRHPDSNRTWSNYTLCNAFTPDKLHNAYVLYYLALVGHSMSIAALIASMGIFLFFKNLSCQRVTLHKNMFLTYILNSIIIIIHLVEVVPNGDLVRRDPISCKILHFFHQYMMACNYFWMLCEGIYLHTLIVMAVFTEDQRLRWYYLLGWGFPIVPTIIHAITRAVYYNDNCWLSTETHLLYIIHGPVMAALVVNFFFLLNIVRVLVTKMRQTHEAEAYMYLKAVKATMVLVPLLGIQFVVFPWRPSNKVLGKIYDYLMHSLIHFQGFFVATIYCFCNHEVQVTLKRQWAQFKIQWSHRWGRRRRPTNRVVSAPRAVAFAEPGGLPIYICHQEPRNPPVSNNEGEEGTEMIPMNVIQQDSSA
T2 sequence (looked up) 2: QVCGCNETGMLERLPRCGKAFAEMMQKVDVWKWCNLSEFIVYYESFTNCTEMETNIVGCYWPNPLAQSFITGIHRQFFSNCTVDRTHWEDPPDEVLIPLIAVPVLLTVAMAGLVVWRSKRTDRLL

T3: human calcitonin receptor (human, UniProt P30988 25-474)
T3 construct: whole, on cells; Cell membranes from the stably transfected cell line (Assay VII); also called hCTR; hCT
T3 sequence (looked up): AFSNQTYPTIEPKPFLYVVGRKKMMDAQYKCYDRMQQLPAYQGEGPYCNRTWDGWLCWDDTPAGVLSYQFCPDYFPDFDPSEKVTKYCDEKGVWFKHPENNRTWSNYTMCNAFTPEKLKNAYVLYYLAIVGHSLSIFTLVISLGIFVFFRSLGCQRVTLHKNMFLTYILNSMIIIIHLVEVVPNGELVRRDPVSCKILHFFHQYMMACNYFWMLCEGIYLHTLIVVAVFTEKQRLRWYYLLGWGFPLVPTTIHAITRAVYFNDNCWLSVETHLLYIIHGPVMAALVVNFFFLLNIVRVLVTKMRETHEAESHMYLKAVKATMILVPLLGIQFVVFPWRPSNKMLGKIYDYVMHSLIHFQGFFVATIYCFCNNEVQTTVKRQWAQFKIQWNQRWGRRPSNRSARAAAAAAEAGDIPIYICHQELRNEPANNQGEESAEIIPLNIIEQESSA


Assays:
[1] = biological target: T1, rat calcitonin receptor; test: ratio of binding IC50s: rat calcitonin receptor (Assay VIII) over rat amylin receptor (Assay VI)
[2] = biological target: T1, rat calcitonin receptor; test: SPA competition binding, displacement of 125I-Calcitonin from membranes of BHK tk'ts 13 cells with rat calcitonin receptor (Assay VIII)
[3] = biological target: T2, rat amylin receptor (rat calcitonin …); test: SPA competition binding, displacement of 125I-rat amylin from membranes of BHK tk'ts 13 cells with rat calcitonin receptor + rat RAMP 3 (Assay VI)
Experimental: The binding assay was performed using scintillation proximity assay (SPA) beads (RPNQ0001) from PerkinElmer and cell membranes from the Amylin 3(a)/CRE-luc cells (as described in Assay (II)) were used. Membranes were prepared in the following way; the cells were rinsed with PBS and incubated with Versene for approximately 5 min before harvesting. The cells were flushed with PBS and the cell-suspension was centrifuged for 5 min at 1000 rpm. Cells were homogenized (ultrathurrax) in a buffer containing 20 mM Na-HEPES and 10 mM EDTA (pH 7.4) and centrifuged at 20.000 rpm for 15 min. The resulting pellet was resuspended, homogenized and centrifuged (20.000 rpm, 15 min) in a buffer containing 20 mM Na-HEPES and 0.1 mM EDTA (pH 7.4, buffer 2). The resulting pellet was resuspended in buffer 2 and protein concentration was measured (BCA protein Assay, Pierce). The homogenate was kept cold during the whole procedure. The membranes were kept at −80° C. until use. The assay was performed in a 384 well Optiplate (PerkinElmer) in a total volume of 40 ul. Membranes were mixed with SPA beads. Final concentration of membranes 35 ng/μL final and SPA beads was 0.05 mg/well. Test-compounds were dissolved in DMSO and further diluted in assay buffer (50 mM Hepes, pH 7.4, 1 mM CaCl2, 5 mM MgCl₂, 0.1% OA and 0.02% Tween20). […] The final mixture was incubated with shaking at 400 rpm for 120 min at 25° C. prior to centrifugation (1500 rpm, 10 min). Samples were analyzed on TopCounter™ (Packard). The IC₅₀ was calculated using (one site binding competition analysis) GraphPad Prism5 as a measure of receptor affinity.
Cells were grown in DMEM with 10% FBS and 1% Pen/Strep. Approximately 48 hours after transfection, the cells were harvested and membranes were prepared.

[4] = biological target: T3, human calcitonin receptor; test: ratio of binding IC50s: human calcitonin receptor (Assay VII) over human amylin receptor (Assay V)
Experimental: The resulting pellet was resuspended, homogenized and centrifuged (20.000 rpm, 15 min) in a buffer containing 20 mM Na-HEPES and 0.1 mM EDTA (pH 7.4, buffer 2). The resulting pellet was resuspended in buffer 2 and protein concentration was measured (BCA protein Assay, Pierce). The homogenate was kept cold during the whole procedure. The membranes were kept at −80° C. until use. The assay was performed in a 384 well Optiplate (PerkinElmer) in a total volume of 40 ul. Membranes were mixed with SPA beads. Final concentration of membranes 35 ng/μL final and SPA beads was 0.05 mg/well. Test-compounds were dissolved in DMSO and further diluted in assay buffer (50 mM Hepes, pH 7.4, 1 mM CaCl2, 5 mM MgCl₂, 0.1% OA and 0.02% Tween20). […] The final mixture was incubated with shaking at 400 rpm for 120 min at 25° C. prior to centrifugation (1500 rpm, 10 min). Samples were analyzed on TopCounter™ (Packard). The IC₅₀ was calculated using (one site binding competition analysis) GraphPad Prism5 as a measure of receptor affinity.
Membranes were prepared in the following way; the cells were rinsed with PBS and incubated with Versene for approximately 5 min before harvesting. The cells were flushed with PBS and the cell-suspension was centrifuged for 5 min at 1000 rpm. Cells were homogenized (Ultrathurrax) in a buffer containing 20 mM Na-HEPES and 10 mM EDTA (pH 7.4) and centrifuged at 20.000 rpm for 15 min. The resulting pellet was resuspended, homogenized and centrifuged (20.000 rpm, 15 min) in a buffer containing 20 mM Na-HEPES and 0.1 mM EDTA (pH 7.4, buffer 2). The resulting pellet was resuspended in buffer 2 and protein concentration was measured (BCA protein Assay, Pierce). The homogenate was kept cold during the whole procedure. The membranes were kept at −80° C. until use. Assay was performed in a 384 well Optiplate (PerkinElmer) in a total volume of 40 ul. Membranes were mixed with SPA beads.

Binder	Ratio rCT/rAmylin binding [1]	IC50 [2] [nM]	IC50 [3] [nM]	Ratio hCT/hAmylin binding [4]
K([γGlu-γGlu-C20 diacid])CNTATCATQRLADFLRHSSPNFGAIPSSTNVGPETY-NH2 (disulfide 2-7; N-terminus assumed; SMILES CC[C@H](C)[C@H](NC(=O)[C@H](C)NC(=O)CNC(=O)[C@H](Cc1ccccc1)NC(=O)[C@H](CC(N)=O)NC(=O)[C@@H]1CCCN1C(=O)[C@H](CO)NC(=O)[C@H](CO)NC(=O)[C@H](Cc1c[nH]cn1)NC(=O)[C@H](CCCNC(=N)N)NC(=O)[C@H](CC(C)C)NC(=O)[C@H](Cc1ccccc1)NC(=O)[C@H](CC(=O)O)NC(=O)[C@H](C)NC(=O)[C@H](CC(C)C)NC(=O)[C@H](CCCNC(=N)N)NC(=O)[C@H](CCC(N)=O)NC(=O)[C@@H](NC(=O)[C@H](C)NC(=O)[C@@H]1CSSC[C@H](NC(=O)[C@@H](N)CCCCNC(=O)CC[C@H](NC(=O)CC[C@H](NC(=O)CCCCCCCCCCCCCCCCCCC(=O)O)C(=O)O)C(=O)O)C(=O)N[C@@H](CC(N)=O)C(=O)N[C@@H]([C@@H](C)O)C(=O)N[C@@H](C)C(=O)N[C@@H]([C@@H](C)O)C(=O)N1)[C@@H](C)O)C(=O)N1CCC[C@H]1C(=O)N[C@@H](CO)C(=O)N[C@@H](CO)C(=O)N[C@H](C(=O)N[C@@H](CC(N)=O)C(=O)N[C@H](C(=O)NCC(=O)N1CCC[C@H]1C(=O)N[C@@H](CCC(=O)O)C(=O)N[C@H](C(=O)N[C@@H](Cc1ccc(O)cc1)C(N)=O)[C@@H](C)O)C(C)C)[C@@H](C)O)	98.5	31.9	0.324	49.8
K([γGlu-γGlu-C20 diacid])CNTATCATQRLADFLRHSSPNFGAIPSSTNVGPRTY-NH2 (disulfide 2-7, also called compound 130)	240	223	0.93	280
